Assay results: IntAct's records for PubMed 35512704

B1: Mothers against decapentaplegic homolog 4 (Homo sapiens), Q13485 (parent)
chain: MDNMSITNTPTSNDACLSIVHSLMCHRQGGESETFAKRAIESLVKKLKEKKDELDSLITAITTNGAHPSKCVTIQRTLDGRLQVAGRKGFPHVIYARLWRWPDLHKNELKHVKYCQYAFDLKCDSVCVNPYHYERVVSPGIDLSGLTLQSNAPSSMMVKDEYVHDFEGQPSLSTEGHSIQTIQHPPSNRASTETYSTPALLAPSESNATSTANFPNIPVASTSQPASILGGSHSEGLLQIASGPQPGQQQNGFTGQPATYHHNSTTTWTGSRTAPYTPNLPHHQNGHLQHHPPMPPHPGHYWPVHNELAFQPPISNHPAPEYWCSIAYFEMDVQVGETFKVPSSCPIVTVDGYVDPSGGDRFCLGQLSNVHRTEAIERARLHIGKGVQLECKGEGDVWVRCLSDHAVFVQSYYLDREAGRAPGDAVHKIYPSAYIKVFDLRQCHRQMQQQAATAQAAAAAQAAAVAGNIPGPGSVGGIAPAISLSAAAGIGVDDLRRLCILRMSFVKGWGPDYPRQSIKETPCWIEIHLHRALQLLDEVLHTMPIADPQPLD
partner: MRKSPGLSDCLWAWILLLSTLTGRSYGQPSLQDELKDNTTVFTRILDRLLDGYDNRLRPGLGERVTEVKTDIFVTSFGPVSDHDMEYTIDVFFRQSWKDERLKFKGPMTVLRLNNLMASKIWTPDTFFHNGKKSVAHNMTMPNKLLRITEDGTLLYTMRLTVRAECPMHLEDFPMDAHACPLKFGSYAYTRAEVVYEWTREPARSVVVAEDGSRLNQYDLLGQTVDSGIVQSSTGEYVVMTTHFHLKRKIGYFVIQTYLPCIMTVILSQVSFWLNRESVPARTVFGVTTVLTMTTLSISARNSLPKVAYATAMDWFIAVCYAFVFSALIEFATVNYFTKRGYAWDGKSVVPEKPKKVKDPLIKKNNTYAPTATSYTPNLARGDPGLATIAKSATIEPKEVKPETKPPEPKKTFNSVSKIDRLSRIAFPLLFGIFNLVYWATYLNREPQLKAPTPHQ
B2: Mothers against decapentaplegic homolog 4 (Homo sapiens), Q13485 (parent)
chain: B1 chain
partner: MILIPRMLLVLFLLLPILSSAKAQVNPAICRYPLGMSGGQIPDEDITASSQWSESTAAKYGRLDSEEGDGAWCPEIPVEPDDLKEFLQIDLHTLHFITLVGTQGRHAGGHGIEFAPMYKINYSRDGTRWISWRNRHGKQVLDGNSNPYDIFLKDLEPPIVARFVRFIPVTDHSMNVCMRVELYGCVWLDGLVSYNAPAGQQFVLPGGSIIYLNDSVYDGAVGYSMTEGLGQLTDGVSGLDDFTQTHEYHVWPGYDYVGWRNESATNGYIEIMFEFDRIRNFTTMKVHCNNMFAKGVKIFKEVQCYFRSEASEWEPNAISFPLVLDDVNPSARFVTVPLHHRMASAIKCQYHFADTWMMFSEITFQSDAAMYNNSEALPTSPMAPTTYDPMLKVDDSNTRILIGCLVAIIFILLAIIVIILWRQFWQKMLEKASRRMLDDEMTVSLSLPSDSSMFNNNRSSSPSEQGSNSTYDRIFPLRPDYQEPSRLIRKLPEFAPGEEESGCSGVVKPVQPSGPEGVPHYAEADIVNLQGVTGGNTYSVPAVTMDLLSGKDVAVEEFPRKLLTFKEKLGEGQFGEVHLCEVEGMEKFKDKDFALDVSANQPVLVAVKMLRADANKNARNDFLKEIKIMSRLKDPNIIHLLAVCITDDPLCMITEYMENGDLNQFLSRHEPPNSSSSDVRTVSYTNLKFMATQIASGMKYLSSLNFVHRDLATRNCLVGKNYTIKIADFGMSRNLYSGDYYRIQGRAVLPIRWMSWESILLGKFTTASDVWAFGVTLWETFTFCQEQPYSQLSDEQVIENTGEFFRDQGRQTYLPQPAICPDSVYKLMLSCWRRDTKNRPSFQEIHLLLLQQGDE
B3: Mothers against decapentaplegic homolog 4 (Homo sapiens), Q13485 (parent)
chain: B1 chain
partner: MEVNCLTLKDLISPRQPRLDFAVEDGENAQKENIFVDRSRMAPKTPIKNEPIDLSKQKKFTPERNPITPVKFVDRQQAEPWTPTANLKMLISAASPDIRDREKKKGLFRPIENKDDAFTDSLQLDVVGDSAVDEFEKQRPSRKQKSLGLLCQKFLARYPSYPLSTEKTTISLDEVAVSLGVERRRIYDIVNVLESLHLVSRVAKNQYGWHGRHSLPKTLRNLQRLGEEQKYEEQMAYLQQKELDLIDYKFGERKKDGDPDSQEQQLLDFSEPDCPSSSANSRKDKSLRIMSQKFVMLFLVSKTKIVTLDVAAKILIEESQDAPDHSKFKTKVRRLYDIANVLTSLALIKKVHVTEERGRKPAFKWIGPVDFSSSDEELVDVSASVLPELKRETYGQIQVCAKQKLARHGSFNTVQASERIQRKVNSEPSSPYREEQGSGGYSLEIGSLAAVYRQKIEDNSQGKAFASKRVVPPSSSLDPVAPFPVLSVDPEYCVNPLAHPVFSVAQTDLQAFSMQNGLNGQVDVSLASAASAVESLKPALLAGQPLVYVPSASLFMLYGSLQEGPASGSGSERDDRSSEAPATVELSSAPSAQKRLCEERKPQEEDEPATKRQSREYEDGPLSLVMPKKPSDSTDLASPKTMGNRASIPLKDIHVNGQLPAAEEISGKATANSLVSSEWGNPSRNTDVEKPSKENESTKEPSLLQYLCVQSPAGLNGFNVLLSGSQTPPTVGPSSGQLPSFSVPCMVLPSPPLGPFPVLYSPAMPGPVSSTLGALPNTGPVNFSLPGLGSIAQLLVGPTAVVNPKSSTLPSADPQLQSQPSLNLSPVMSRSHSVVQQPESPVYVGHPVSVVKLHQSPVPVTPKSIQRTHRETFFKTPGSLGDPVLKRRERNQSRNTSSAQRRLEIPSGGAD
B4: Mothers against decapentaplegic homolog 4 (Homo sapiens), Q13485 (parent)
chain: B1 chain
partner: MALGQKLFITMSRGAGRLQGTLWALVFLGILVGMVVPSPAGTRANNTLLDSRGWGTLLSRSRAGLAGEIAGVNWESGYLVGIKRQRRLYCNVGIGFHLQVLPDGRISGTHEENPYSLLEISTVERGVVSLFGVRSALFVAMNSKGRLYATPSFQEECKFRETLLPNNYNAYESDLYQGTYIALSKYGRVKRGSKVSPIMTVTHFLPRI

Variants of: B1
Conditions: with gbra1_human GABRA1, P14867
With R361C the “effect of a mutation on the interaction” value was “with no effect”.

Variants of: B1
Conditions: with gbra1_human GABRA1, P14867
Remark: another data set of the same source
With R361H the “effect of a mutation on the interaction” value was “with no effect”.

Variants of: B1
Conditions: with gbra1_human GABRA1, P14867
Remark: another data set of the same source
With D351H the “effect of a mutation on the interaction” value was “with no effect”.

Variants of: B2
Conditions: with ddr2_human DDR2, Q16832
In the case of R361H, the “effect of a mutation on the interaction” value is reported as “with no effect”.

Variants of: B2
Conditions: with ddr2_human DDR2, Q16832
Remark: another data set of the same source
With R361C the “effect of a mutation on the interaction” value was “with no effect”.

Variants of: B2
Conditions: with ddr2_human DDR2, Q16832
Remark: another data set of the same source
In the case of D351H, the “effect of a mutation on the interaction” value is reported as “with no effect”.

Variants of: B2
Conditions: with ddr2_human DDR2, Q16832
Remark: another data set of the same source
In the case of G386D, the “effect of a mutation on the interaction” value is reported as “with no effect”.

Variants of: B3
Conditions: with e2f7_human E2F7, Q96AV8
D351H was tested, and the “effect of a mutation on the interaction” value was “with no effect”.

Variants of: B3
Conditions: with e2f7_human E2F7, Q96AV8
Remark: another data set of the same source
For G386D, the “effect of a mutation on the interaction” value was “with no effect”.

Variants of: B4
Conditions: with fgf6_human FGF6, P10767
In the case of G386D, the “effect of a mutation on the interaction” value is reported as “with no effect”.

Variants of: B4
Conditions: with fgf6_human FGF6, P10767
Remark: another data set of the same source
For R361C, the “effect of a mutation on the interaction” value was “with no effect”.

Variants of: B4
Conditions: with fgf6_human FGF6, P10767
Remark: another data set of the same source
R361H was tested, and the “effect of a mutation on the interaction” value was “with no effect”.
